Values quoted from earlier work, collected in PMC4081073.

Target: EcoRI restriction endonuclease (Escherichia coli) (UniProt P00642)

Kd: 0.1 µM
Substance: EcoRI restriction endonuclease (from UniProt P00642)
